Assay [1] concerns the target NHERF1 PDZ1 domain (1-140) (human) (UniProt O14745). As to the kind of experiment: ITC. (Isothermal titration calorimetry measures the heat released or taken up as one component is titrated into another.)
In assay [2] the target is NHERF1 PDZ2 domain (133-300) (human) (UniProt O14745). The experiment in a line: ITC.
The target in the next assay is T1, PDZ1 of NHERF1 (Homo sapiens, UniProt O14745).
T1 sequence (O14745 1-140): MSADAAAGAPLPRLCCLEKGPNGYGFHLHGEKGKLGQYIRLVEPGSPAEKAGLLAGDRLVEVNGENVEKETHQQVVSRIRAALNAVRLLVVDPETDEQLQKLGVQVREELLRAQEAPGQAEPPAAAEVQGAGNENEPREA
The experiment in a line: Isothermal titration calorimetry, NHERF1 PDZ1. In kind it is binding.

The target in assay [3] is T2, PDZ2 of NHERF1 (Homo sapiens, UniProt O14745).
T2 sequence (O14745 133-300): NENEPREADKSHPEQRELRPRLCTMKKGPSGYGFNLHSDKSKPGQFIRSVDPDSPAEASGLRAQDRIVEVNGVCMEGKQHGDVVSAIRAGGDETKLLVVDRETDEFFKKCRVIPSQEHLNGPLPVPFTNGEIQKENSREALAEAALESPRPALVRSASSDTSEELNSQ
The experiment in a line: Isothermal titration calorimetry, NHERF1 PDZ2. In kind it is binding.

The test system of the next assay is PTHR. As to the kind of experiment: Mass spectrometry of PTHR phosphorylation in cell lysates. In kind it is cell-based. The note with it: PTH(1–34) treatment; MS-MS of cell lysates.
For assay [4], the target named is T2, PDZ2 of NHERF1. As to the kind of experiment: Surface plasmon resonance, NHERF1 PDZ2. It counts as binding. Background: SPR reads the build-up and loss of mass on a sensor chip optically.
The target in assay [5] is T3, NHERF1 PDZ1 domain (1-140) (human, UniProt O14745 1-140).
T3 sequence (looked up): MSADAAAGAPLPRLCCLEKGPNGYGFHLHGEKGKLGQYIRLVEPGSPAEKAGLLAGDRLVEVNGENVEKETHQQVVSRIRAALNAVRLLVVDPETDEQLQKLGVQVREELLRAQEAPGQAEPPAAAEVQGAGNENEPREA
As to the kind of experiment: fluorescence polarisation. Background: In fluorescence polarisation assays a small probe gives low polarisation when free and higher when bound to something large.

Assay [6] concerns the target T4, NHERF1 PDZ2 domain (133-300) (human, UniProt O14745 133-300).
T4 sequence (looked up): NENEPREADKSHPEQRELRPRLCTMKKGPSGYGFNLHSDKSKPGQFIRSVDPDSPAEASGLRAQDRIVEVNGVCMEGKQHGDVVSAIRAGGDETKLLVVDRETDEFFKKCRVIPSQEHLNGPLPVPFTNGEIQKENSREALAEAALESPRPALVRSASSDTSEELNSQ
As to the kind of experiment: fluorescence polarisation.

In assay [7] the target is T3, NHERF1 PDZ1 domain (1-140). As to the kind of experiment: fluorescence polarisation. The source holds these as a separate data set.
In assay [8] the target is T4, NHERF1 PDZ2 domain (133-300). As to the kind of experiment: fluorescence polarisation. The source holds these as a separate data set.
Assay [9] addresses T3, NHERF1 PDZ1 domain (1-140). The experiment in a line: fluorescence polarisation. The source holds these as a separate data set.
In assay [10] the target is T4, NHERF1 PDZ2 domain (133-300). The experiment in a line: fluorescence polarisation. This is another data set of the same source.
Assay [11] has as its target T3, NHERF1 PDZ1 domain (1-140). The experiment in a line: fluorescence polarisation. The source holds these as a separate data set.
Assay [12] has as its target T4, NHERF1 PDZ2 domain (133-300). As to the kind of experiment: fluorescence polarisation. The source holds these as a separate data set.
Assay [13] addresses T3, NHERF1 PDZ1 domain (1-140). As to the kind of experiment: ITC.
Assay [14] has as its target T4, NHERF1 PDZ2 domain (133-300). The experiment in a line: ITC.
The target of assay [15] is T3, NHERF1 PDZ1 domain (1-140). As to the kind of experiment: fluorescence polarisation. The source holds these as a separate data set.
The target of assay [16] is T3, NHERF1 PDZ1 domain (1-140). The experiment in a line: SPR.
The target of assay [17] is T4, NHERF1 PDZ2 domain (133-300). As to the kind of experiment: SPR.
The target in assay [18] is T3, NHERF1 PDZ1 domain (1-140). As to the kind of experiment: SPR. The source holds these as a separate data set.
Assay [19] concerns the target T4, NHERF1 PDZ2 domain (133-300). As to the kind of experiment: SPR. This is another data set of the same source.
Assay [20] has the same target. The experiment in a line: fluorescence polarisation. The source holds these as a separate data set.

Square brackets hold non-standard residues; d marks the D form. Ends that are not written are not given here. Peptide text beside a SMILES is read from it. * marks the point of attachment. FITC = O=C1OC2(c3ccc(O)cc3Oc3cc(O)ccc32)c2ccc(NC(=S)*)cc21; Biotin = O=C1N[C@H]2[C@H](CS[C@H]2CCCCC(=O)*)N1; pT = C[C@@H](OP(=O)(O)O)[C@H](N)C(=O)O

A word on the Kd: it is a measure of binding affinity in units of concentration. Higher therefore signals a looser complex. The term stoichiometry N denotes the number of molecules, sites or subunits per partner or assembly. In assay [1], PTHRct-8 peptide with Ala at Glu-6 gave a Kd of 13.1 µM, a dH of -4.3 kcal/mol and a stoichiometry N of 1.1. Moreover, in assay [2], the equilibrium dissociation constant (Kd) was determined as 18.1 µM and the stoichiometry N is 1.12.
With QEEWATVM [QEEWATVM], the Kd stood at 34.2 ± 0.5 µM at PDZ1 of NHERF1 and 35.5 ± 2 µM at PDZ2 of NHERF1 [3].
QEAWETVM [QEAWETVM]: the figures for the dissociation constant (Kd) on PDZ1 of NHERF1 and on PDZ2 of NHERF1 [3] were 25.5 ± 1.1 µM and 26.8 ± 2.1 µM, respectively.
Consider QEAWATVM, for which the “n (stoichiometry)” value at PDZ1 of NHERF1 (ITC, PDZ1, 25 °C, mean ± S.E.M. (n = 3)) is 1.12 ± 0.03; on PDZ2 of NHERF1 [3] (ITC, PDZ2, 25 °C, mean ± S.E.M. (n = 3)), 1.04 ± 0.02.
As to human Nle^8,18Tyr^34-PTH(1–34), the “phosphorylation of PTHR Thr591” value in the assay with PTHR is listed as “promoted phosphorylation of Thr591”.
For the molecule PTHRct-8 peptide with Ala at Glu-3, in assay [1], the Kd is 34.2 µM and the stoichiometry N amounted to 1.15. In [2], this molecule yielded a Kd of 35.5 µM, a dH of -8.6 kcal/mol and a stoichiometry N of 0.88.
On to QAEWETVM [QAEWETVM], for which the results for the Kd on PDZ1 of NHERF1 and on PDZ2 of NHERF1 [3] were 13.1 ± 1.7 µM and 18.1 ± 2.4 µM, respectively.
On to QAAWETVM [QAAWETVM], for which the affinity on PDZ1 of NHERF1, expressed as Kd, was 24.4 ± 0.6 µM.
Regarding PTHRct-8 peptide with Ala at Glu-5, in [1], the dissociation constant (Kd) worked out at 25.5 µM, the dH is -7.6 kcal/mol and the stoichiometry N stood at 1.21. In assay [2], this molecule showed a dissociation constant (Kd) of 26.8 µM and a dH of -10.3 kcal/mol.
For `CSCC[C@H](NC(=O)[C@@H](NC(=O)[C@@H](NC(=O)[C@H](CCC(=O)O)NC(=O)[C@H](Cc1c[nH]c2ccccc12)NC(=O)[C@H](CCC(=O)O)NC(=O)[C@H](CCC(=O)O)NC(=O)[C@H](CCC(N)=O)NC(=O)[C@H](CC(C)C)NC(=O)[C@H](CC(C)C)NC(=O)[C@H](C)NC(=O)[C@@H]1CCCN1C(=O)[C@@H]1CCCN1C(=O)[C@H](CCCNC(=N)N)NC(=O)[C@H](CCC(=O)O)NC(=O)[C@@H]1CCCN1C(=O)CNC(=O)[C@H](CO)NC(=O)[C@H](C)NC(=O)[C@H](CCC(=O)O)NC(=O)[C@H](CCC(=O)O)NC(=O)[C@H](CC(=O)O)NC(=O)CCCC[C@@H]1SC[C@@H]2NC(=O)N[C@@H]21)[C@@H](C)O)C(C)C)C(=O)O` [b-PTHRct-22] (Biotin-DEEASGPERPPALLQEEWETVM-OH), the Kd at PDZ2 of NHERF1 [4] came to 11.5 ± 0.4 µM.
Turning to “PTHRct-8 peptide with Ala at Glu-6 and Glu-5”, in assay [1], the equilibrium dissociation constant (Kd) was 24.4 µM, the dH is -3.8 kcal/mol and the stoichiometry N was determined as 1.26. In assay [2], this molecule registered an equilibrium dissociation constant (Kd) of 57.8 µM, a dH of -7.2 kcal/mol and a stoichiometry N of 1.26.
With {FITC}-LQEEWETVM [FITC-labeled carboxy-terminal PTHR 9-residue peptide], the dissociation constant Kd in assay [5] was found to be 0.4 µM; in assay [6], 0.4 µM; in [7], 1 µM; in [8], 0.6 µM; in assay [9], 4.7 µM; in [10], 2.4 µM. Besides, the dissociation constant Kd amounted to 1 µM in [11] and 0.6 µM in assay [12].
QEEWETVM [wild-type PTHRct-8 peptide]: in [13], the Kd is 11.7 µM, the dH was -10.6 kcal/mol and the “stoichiometry N” value amounted to 1.11. In addition, in [14], binding was characterised by a dissociation constant (Kd) of 9.7 µM, the dH is -21.6 kcal/mol and the “stoichiometry N” value is 1.13.
By Ki is commonly meant the dissociation constant of the complex between target and ligand, obtained from inhibition or displacement. A high value points to a looser hold on the target. For LQEEWE[pT]VM [phosphorylated Thr-2-PTHRct-9], in assay [15], the affinity, expressed as Ki, was 121 µM.
In [15], LQEEWETVM [unlabeled carboxy-terminal PTHR 9-residue peptide] displayed a Ki of 1.4 ± 0.9 µM. This Ki is about 86-fold lower than that of the molecule before.
In assay [15], LQEEWECVM [Thr-2/Cys-2 mutant of PTHRct-9] yielded a Ki of 11 µM.
One may read the koff as the first-order rate constant of dissociation. Broadly, the kon is the rate constant with which the complex forms. The low end stands for slow association, the high end for fast association. For the molecule Biotin-DEEASGPERPPALLQEEWETVM [biotinylated carboxy-terminal 22-amino acid PTHR peptide], the dissociation rate constant (koff) in assay [16] is 0.606 s⁻¹; in [17], 0.393 s⁻¹. The kon turned out to be 14700 M⁻¹ s⁻¹ in assay [16] and 57000 M⁻¹ s⁻¹ in assay [17]. Also, the results for the Kd in assay [18] and in [19] were 16 µM and 11.5 µM, respectively. This molecule also yielded an inhibition constant Ki in assay [20] of 7 µM.

The record behind these values is article PMC5479578 (Biochemistry, 2017).
